# Substitutions are numbered along the chain they refer to.
# T1: extracellular domain of human CD79b (human, UniProt P40259 29-159)
# T1 construct: also called huCD79becd; huCD79b-ecd
# T1 sequence: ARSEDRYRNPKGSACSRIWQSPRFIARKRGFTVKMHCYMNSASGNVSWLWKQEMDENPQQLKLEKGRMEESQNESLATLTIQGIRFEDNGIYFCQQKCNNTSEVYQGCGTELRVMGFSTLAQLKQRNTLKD
# B1: huMA79b graft variant SEQ ID NO: 51 (Fab, name in Kabat numbering, V domains shown)
# VH: EVQLVESGGGLVQPGGSLRLSCAASGYTFSSYWIEWVRQAPGKGLEWVGEILPGGGDTNYNEIFKGRFTISADTSKNTAYLQMNSLRAEDTAVYYCTRRVPVYFDYWGQGTLVTVSS
# VL: DIQMTQSPSSLSASVGDRVTITCKASQSVDYDGDSFLNWYQQKPGKAPKLLIYAASNLESGVPSRFSGSGSGTDFTLTISSLQPEDFATYYCNNSNGDPLNFGQGTKVEIKR
# notes: Fab on phage; rest as huMA79b graft
# B2: huMA79b graft variant SEQ ID NO: 62 (Fab, name in Kabat numbering, V domains shown)
# VH: B1 VH with T28P, S30G, S31R, I34V, E35N
# VL: B1 VL with N93Q, N94Q, G97E, N101T
# notes: as for B1
# B3: huMA79b graft variant SEQ ID NO: 78 (Fab, name in Kabat numbering, V domains shown)
# VH: B1 VH with T28P, S31G
# VL: B1 VL with N93Q, N94Q, G97E, N101T
# notes: as for B1
# B4: huMA79b graft variant SEQ ID NO: 59 (Fab, name in Kabat numbering, V domains shown)
# VH: B1 VH with T28S, S30K
# VL: B1 VL with N93Q, N94Q, G97E, N101T
# notes: as for B1
# B5: huMA79b graft variant SEQ ID NO: 99 (Fab, name in Kabat numbering, V domains shown)
# VH: B1 VH with Y103V, F104L
# VL: B1 VL with N93Q, N94Q, G97E, N101T
# notes: as for B1
# B6: huMA79b graft variant SEQ ID NO: 102 (Fab, name in Kabat numbering, V domains shown)
# VH: B1 VH with Y103F, F104L
# VL: B1 VL with N93Q, N94Q, G97E, N101T
# notes: as for B1
# B7: huMA79b graft variant SEQ ID NO: 82 (Fab, name in Kabat numbering, V domains shown)
# VH: B1 VH with T28P, S30N, S31R
# VL: B1 VL with N93Q, N94Q, G97E, N101T
# notes: as for B1
# B8: huMA79b graft variant SEQ ID NO: 73 (Fab, name in Kabat numbering, V domains shown)
# VH: B1 VH with T28S, S30R, E35N
# VL: B1 VL with N93Q, N94Q, G97E, N101T
# notes: as for B1
# B9: huMA79b graft variant SEQ ID NO: 77 (Fab, name in Kabat numbering, V domains shown)
# VH: B1 VH with T28P, S30T, S31R
# VL: B1 VL with N93Q, N94Q, G97E, N101T
# notes: as for B1
# B10: huMA79b graft variant SEQ ID NO: 53 (Fab, name in Kabat numbering, V domains shown)
# VH: B1 VH
# VL: B1 VL with N93D, N94Q, S95R, G97A, N101T
# notes: as for B1
# B11: huMA79b graft variant SEQ ID NO: 70 (Fab, name in Kabat numbering, V domains shown)
# VH: B1 VH with S30T
# VL: B1 VL with N93Q, N94Q, G97E, N101T
# notes: as for B1
# B12: huMA79b graft variant SEQ ID NO: 86 (Fab, name in Kabat numbering, V domains shown)
# VH: B1 VH with Y27F, T28P, S30N, S31R, E35N
# VL: B1 VL with N93Q, N94Q, G97E, N101T
# notes: as for B1
# B13: huMA79b graft variant SEQ ID NO: 98 (Fab, name in Kabat numbering, V domains shown)
# VH: B1 VH with D105S
# VL: B1 VL with N93Q, N94Q, G97E, N101T
# notes: as for B1
# B14: huMA79b graft variant SEQ ID NO: 85 (Fab, name in Kabat numbering, V domains shown)
# VH: B1 VH with Y27F, T28P, S30T, E35S
# VL: B1 VL with N93Q, N94Q, G97E, N101T
# notes: as for B1
# B15: huMA79b graft variant SEQ ID NO: 96 (Fab, name in Kabat numbering, V domains shown)
# VH: B1 VH with V102I, Y103R
# VL: B1 VL with N93Q, N94Q, G97E, N101T
# notes: as for B1
# B16: huMA79b graft variant SEQ ID NO: 66 (Fab, name in Kabat numbering, V domains shown)
# VH: B1 VH with T28P, F29V, S30G, S31R, E35S
# VL: B1 VL with N93Q, N94Q, G97E, N101T
# notes: as for B1
# B17: huMA79b graft variant SEQ ID NO: 80 (Fab, name in Kabat numbering, V domains shown)
# VH: B1 VH with T28P, S30R, E35N
# VL: B1 VL with N93Q, N94Q, G97E, N101T
# notes: as for B1
# B18: huMA79b graft variant SEQ ID NO: 65 (Fab, name in Kabat numbering, V domains shown)
# VH: B1 VH with T28P, S30R, S31R
# VL: B1 VL with N93Q, N94Q, G97E, N101T
# notes: as for B1
# B19: huMA79b graft variant SEQ ID NO: 105 (Fab, name in Kabat numbering, V domains shown)
# VH: B1 VH with V100R, Y103C, F104L
# VL: B1 VL with N93Q, N94Q, G97E, N101T
# notes: as for B1
# B20: huMA79b graft variant SEQ ID NO: 100 (Fab, name in Kabat numbering, V domains shown)
# VH: B1 VH with Y103R, F104L
# VL: B1 VL with N93Q, N94Q, G97E, N101T
# notes: as for B1
# B21: huMA79b graft variant SEQ ID NO: 52 (Fab, name in Kabat numbering, V domains shown)
# VH: B1 VH
# VL: B1 VL with N93Q, N94P, S95D, G97E, D98A, L100R, N101T
# notes: as for B1
# B22: huMA79b graft variant SEQ ID NO: 76 (Fab, name in Kabat numbering, V domains shown)
# VH: B1 VH with T28S, S30P, I34L, E35Q
# VL: B1 VL with N93Q, N94Q, G97E, N101T
# notes: as for B1
# B23: huMA79b graft variant SEQ ID NO: 72 (Fab, name in Kabat numbering, V domains shown)
# VH: B1 VH with S30R, S31R, E35N
# VL: B1 VL with N93Q, N94Q, G97E, N101T
# notes: as for B1
# B24: huMA79b graft variant SEQ ID NO: 56 (Fab, name in Kabat numbering, V domains shown)
# VH: B1 VH with T28P, S30T, E35N
# VL: B1 VL with N93Q, N94Q, G97E, N101T
# notes: as for B1
# B25: huMA79b graft variant SEQ ID NO: 55 (Fab, name in Kabat numbering, V domains shown)
# VH: B1 VH with T28P, S30R, E35Q
# VL: B1 VL with N93Q, N94Q, G97E, N101T
# notes: as for B1
# B26: huMA79b graft variant SEQ ID NO: 106 (Fab, name in Kabat numbering, V domains shown)
# VH: B1 VH with V100I
# VL: B1 VL with N93Q, N94Q, G97E, N101T
# notes: as for B1
# B27: huMA79b graft variant SEQ ID NO: 95 (Fab, name in Kabat numbering, V domains shown)
# VH: B1 VH with V102I, Y103K, F104L
# VL: B1 VL with N93Q, N94Q, G97E, N101T
# notes: as for B1
# B28: huMA79b graft variant SEQ ID NO: 74 (Fab, name in Kabat numbering, V domains shown)
# VH: B1 VH with T28S, S30R, S31R, E35N
# VL: B1 VL with N93Q, N94Q, G97E, N101T
# notes: as for B1
# B29: huMA79b graft variant SEQ ID NO: 84 (Fab, name in Kabat numbering, V domains shown)
# VH: B1 VH with T28N, F29V, I34L, E35S
# VL: B1 VL with N93Q, N94Q, G97E, N101T
# notes: as for B1
# B30: huMA79b graft variant SEQ ID NO: 68 (Fab, name in Kabat numbering, V domains shown)
# VH: B1 VH with T28G, S30T, E35S
# VL: B1 VL with N93Q, N94Q, G97E, N101T
# notes: as for B1
# B31: huMA79b graft variant SEQ ID NO: 69 (Fab, name in Kabat numbering, V domains shown)
# VH: B1 VH with S30T, I34L, E35S
# VL: B1 VL with N93Q, N94Q, G97E, N101T
# notes: as for B1
# B32: huMA79b graft variant SEQ ID NO: 58 (Fab, name in Kabat numbering, V domains shown)
# VH: B1 VH with S30N, S31R, E35N
# VL: B1 VL with N93Q, N94Q, G97E, N101T
# notes: as for B1
# B33: huMA79b graft variant SEQ ID NO: 64 (Fab, name in Kabat numbering, V domains shown)
# VH: B1 VH with T28P, S30T, E35Q
# VL: B1 VL with N93Q, N94Q, G97E, N101T
# notes: as for B1
# B34: huMA79b graft variant SEQ ID NO: 92 (Fab, name in Kabat numbering, V domains shown)
# VH: B1 VH with V102F, Y103C, F104L
# VL: B1 VL with N93Q, N94Q, G97E, N101T
# notes: as for B1
# B35: huMA79b graft variant SEQ ID NO: 79 (Fab, name in Kabat numbering, V domains shown)
# VH: B1 VH with T28P, S30R, E35S
# VL: B1 VL with N93Q, N94Q, G97E, N101T
# notes: as for B1
# B36: huMA79b graft variant SEQ ID NO: 101 (Fab, name in Kabat numbering, V domains shown)
# VH: B1 VH with Y103R
# VL: B1 VL with N93Q, N94Q, G97E, N101T
# notes: as for B1
# B37: huMA79b graft variant SEQ ID NO: 89 (Fab, name in Kabat numbering, V domains shown)
# VH: B1 VH with Y103K, F104L
# VL: B1 VL with N93Q, N94Q, G97E, N101T
# notes: as for B1
# B38: huMA79b graft variant SEQ ID NO: 83 (Fab, name in Kabat numbering, V domains shown)
# VH: B1 VH with T28P, S30N, S31G, E35N
# VL: B1 VL with N93Q, N94Q, G97E, N101T
# notes: as for B1
# B39: huMA79b graft variant SEQ ID NO: 71 (Fab, name in Kabat numbering, V domains shown)
# VH: B1 VH with S31G, E35N
# VL: B1 VL with N93Q, N94Q, G97E, N101T
# notes: as for B1
# B40: huMA79b graft variant SEQ ID NO: 61 (Fab, name in Kabat numbering, V domains shown)
# VH: B1 VH with T28Y, S30T
# VL: B1 VL with N93Q, N94Q, G97E, N101T
# notes: as for B1
# B41: huMA79b graft variant SEQ ID NO: 75 (Fab, name in Kabat numbering, V domains shown)
# VH: B1 VH with T28S, S30R, S31R
# VL: B1 VL with N93Q, N94Q, G97E, N101T
# notes: as for B1
# B42: huMA79b graft variant SEQ ID NO: 63 (Fab, name in Kabat numbering, V domains shown)
# VH: B1 VH with S30K, S31K
# VL: B1 VL with N93Q, N94Q, G97E, N101T
# notes: as for B1
# B43: huMA79b graft variant SEQ ID NO: 81 (Fab, name in Kabat numbering, V domains shown)
# VH: B1 VH with T28P, S30R, S31G
# VL: B1 VL with N93Q, N94Q, G97E, N101T
# notes: as for B1
# Molecular target: T1, extracellular domain of human CD79b
# Assay: phage selection, Fab on phage, plate-bound huCD79becd
row,Binder,binding result
1,B1,binds
2,B2,binds
3,B3,binds
4,B4,binds
5,B5,binds
6,B6,binds
7,B7,binds
8,B8,binds
9,B9,binds
10,B10,binds
11,B11,binds
12,B12,binds
13,B13,binds
14,B14,binds
15,B15,binds
16,B16,binds
17,B17,binds
18,B18,binds
19,B19,binds
20,B20,binds
21,B21,binds
22,B22,binds

row,Binder,binding result
1,B23,binds
2,B24,binds
3,B25,binds
4,B26,binds
5,B27,binds
6,B28,binds
7,B29,binds
8,B30,binds
9,B31,binds
10,B32,binds
11,B33,binds
12,B34,binds
13,B35,binds
14,B36,binds
15,B37,binds
16,B38,binds
17,B39,binds
18,B40,binds
19,B41,binds
20,B42,binds
21,B43,binds

# Reference: patent publication USRE48558 (Genentech, dated 2021)
